This note sets out measurements from article PMC6957489.

Experiment [1] concerns the target t-SNARE heterodimer with syntaxin-1A labeled at position 241 with cy5 (C-C FRET pair) (rat) (UniProt P32851). Description: FRET or BRET; single-molecule FRET as above, with full-length syt1 co-reconstituted in the v-SNARE nanodisc; values in the absence of Ca2+ (EGTA); subsequent Ca2+ (500 µM free) had only subtle effects, with an increase in the highest C-C FRET peak. (BRET reads energy transfer from a luciferase to a nearby fluorophore.)

For experiment [2] the target is unchanged. The experiment is described as follows: FRET or BRET; single-molecule FRET (prism-based TIRF, 100-ms resolution) between cy3-syb2 in v-SNARE 13 nm nanodiscs (ND1) and cy5-syntaxin-1A in t-SNARE nanodiscs; NDs (5 µM) incubated at room temperature 30 min, diluted to 10 pM; no syt1; with EGTA or 500 µM free Ca2+ (Ca2+ had no effect); 100 mM KCl, 25 mM HEPES pH 7.4.

The target in experiment [3] is t-SNARE heterodimer with syntaxin-1A labeled at position 203 with cy5 (N-N FRET pair) (rat) (UniProt P32851). The description is as above.

“syb2 labeled at position 72 with cy3 (C-C FRET pair) (from UniProt P63045 1-116) (natural protein)”: in experiment [1], the FRET ratio (R), C-C pair, first of three states (with apo-syt1) was 0.2; the FRET ratio (R), C-C pair, second of three states (with apo-syt1) stood at 0.5; the FRET ratio (R), C-C pair, third of three states (with apo-syt1) was determined as 0.7. Besides, the FRET ratio (R), peak of the distribution, C-C pair in experiment [2] worked out at 0.2.
In the case of “syb2 labeled at position 33 with cy3 (N-N FRET pair) (from UniProt P63045 1-116) (natural protein)”, the FRET ratio (R), peak of the distribution, N-N pair in experiment [3] worked out at 0.7.
